Measured values: patent US11912794B2, “Modulation of structured polypeptide specificity” (BicycleRD Limited, priority 2011, dated 2024)
Ends that are not written are not given here.

Biological target: T1, Biotinylated hPK (Homo sapiens, UniProt P03952)
T1 construct: IHPKA, from human plasma; purchased Innovative Research, Novi, MI, USA IHPKA; host or cells: human plasma
Assay: Phage selections, abundance of sequences in selection outputs
Format: binding
Settings: for Frequency (relative abundance in the total selection outputs): randomised WPAR motif at positions 2, 3, 4 & 5 within the 06-34-03 sequence
Experimental: Glycerol stocks of phage libraries were diluted to OD600=0.1 in 500 ml 2YT/chloramphenicol (30 μg/ml) cultures and phage were produced at 30° C. over night (15-16 hrs). Phage were purified and chemically modified as described in Heinis, et al., Nat Chem Biol 2009, 5 (7), 502-7 Biotinylated hPK (3 μg) (IHPKA, from human plasma, Innovative Research, Novi, MI, USA) was incubated with 50 μl pre-washed magnetic streptavidin beads (Dynal, M-280 from Invitrogen, Paisley, UK) for 10 minutes at RT. […] Blocked beads were then mixed with the blocked chemically modified phage and incubated for 30 minutes on a rotating wheel at RT. Beads were washed 8 times with washing buffer containing 0.1% Tween 20 and twice with washing buffer before incubation with 100 μl of 50 mM glycine, pH 2.2 for 5 minutes. Eluted phage were transferred to 50 μl of 1 M Tris-Cl, pH 8 for neutralization, incubated with 30 ml TG1 cells at OD600=0.4 for 90 minutes at 37° C. and the cells were plated on large 2YT/chloramphenicol plates. One or two additional rounds of panning were performed using the same procedures. In the second round of selection, neutravidin-coated magnetic beads were used to prevent the enrichment of streptavidin-specific peptides. The neutravidin beads were prepared by reacting 0.8 mg neutravidin (Pierce, Rockford, IL, USA) with 0.5 ml tosyl-activated magnetic beads (Dynal, M-280 from Invitrogen, Paisley, UK) according to the supplier's instructions.
The WPAR (SEQ ID NO: 18) motif identified from Example 1 was analysed in the context of the 06-34-03 peptide, in order to identify alternatives or improvements to the WPAR (SEQ ID NO: 18) motif. A library was constructed where positions 1, 6, 7, 8, 9 &10 of 06-34-03 were fixed and positions 2, 3, 4 & 5 were randomised (see ‘Randomisation of peptide domains—Library construction’ in Methods above). Selections against human plasma Kallikrein were performed at a variety of stringencies (see Phage selections' in Methods above). All output sequences were identified and analysed for target binding (see ‘Randomisation of peptide domains—Assay of binding of individual clones’ in Methods above). Table 17 lists each unique sequence, its relative abundance in the selection output (frequency), and a rank number according to target binding strength.

[1] = 2nd stringency from High (1st value of cell)
[2] = 3rd stringency from High (2nd value of cell)
[3] = 4th stringency from High (3rd value of cell)
[4] = 5th stringency from High (4th value of cell)

T1 sequence (P03952 20-638): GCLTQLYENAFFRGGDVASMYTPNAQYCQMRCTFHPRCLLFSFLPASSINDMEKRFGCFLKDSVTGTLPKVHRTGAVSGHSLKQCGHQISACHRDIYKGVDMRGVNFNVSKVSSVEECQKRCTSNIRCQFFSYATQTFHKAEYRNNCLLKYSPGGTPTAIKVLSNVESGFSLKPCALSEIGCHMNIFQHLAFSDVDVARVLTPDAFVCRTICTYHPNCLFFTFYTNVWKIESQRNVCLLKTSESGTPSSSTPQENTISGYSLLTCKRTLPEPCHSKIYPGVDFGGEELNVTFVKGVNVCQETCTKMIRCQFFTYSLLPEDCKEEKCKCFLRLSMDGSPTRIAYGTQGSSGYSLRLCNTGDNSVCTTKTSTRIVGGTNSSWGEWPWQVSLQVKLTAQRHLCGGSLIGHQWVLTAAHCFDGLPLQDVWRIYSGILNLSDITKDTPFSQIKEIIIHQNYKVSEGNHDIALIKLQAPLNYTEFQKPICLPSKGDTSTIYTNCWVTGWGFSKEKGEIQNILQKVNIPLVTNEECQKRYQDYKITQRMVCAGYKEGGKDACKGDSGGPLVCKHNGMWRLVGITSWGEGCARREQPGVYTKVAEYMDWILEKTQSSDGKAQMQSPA

Substance | Frequency (relative abundance in the total selection outputs) | other results
SEQ ID NO: 105 (CSYPWRCTHQDLC; Synthetic sequence Kallikrein binder identified from selections using a randomised WPAR motif at positions 2, 3, 4 & 5 within the 06-34-03 sequence of PCT/EP2012/069898 (SEQ ID NO 58)) | 1 | –
SEQ ID NO: 102 (CSLPIRCTHQDLC; Synthetic sequence Kallikrein binder identified from selections using a randomised WPAR motif at positions 2, 3, 4 & 5 within the 06-34-03 sequence of PCT/EP2012/069898 (SEQ ID NO 58)) | 1 | –
SEQ ID NO: 109 (CSFMYKCTHQDLC; Synthetic sequence Kallikrein binder identified from selections using a randomised WPAR motif at positions 2, 3, 4 & 5 within the 06-34-03 sequence of PCT/EP2012/069898 (SEQ ID NO 58)) | 1 | –
SEQ ID NO: 86 (CSWPFRCTHQDLC; Synthetic sequence Kallikrein binder identified from selections using a randomised WPAR motif at positions 2, 3, 4 & 5 within the 06-34-03 sequence of PCT/EP2012/069898 (SEQ ID NO 58)) | 7 | –
SEQ ID NO: 79 (CSWAARCTHQDLC; Synthetic sequence Kallikrein binder identified from selections using a randomised WPAR motif at positions 2, 3, 4 & 5 within the 06-34-03 sequence of PCT/EP2012/069898 (SEQ ID NO 58)) | 1 | –
SEQ ID NO: 114 (CSWQARCTHQDLC; Synthetic sequence Kallikrein binder identified from selections using a randomised WPAR motif at positions 2, 3, 4 & 5 within the 06-34-03 sequence of PCT/EP2012/069898 (SEQ ID NO 58)) | 1 | –
SEQ ID NO: 78 (CSFPFKCTHQDLC; Synthetic sequence Kallikrein binder identified from selections using a randomised WPAR motif at positions 2, 3, 4 & 5 within the 06-34-03 sequence of PCT/EP2012/069898 (SEQ ID NO 58)) | 4 | –
SEQ ID NO: 101 (CSFLYKCTHQDLC; Synthetic sequence Kallikrein binder identified from selections using a randomised WPAR motif at positions 2, 3, 4 & 5 within the 06-34-03 sequence of PCT/EP2012/069898 (SEQ ID NO 58)) | 2 | –
SEQ ID NO: 108 (CSWSYRCTHQDLC; Synthetic sequence Kallikrein binder identified from selections using a randomised WPAR motif at positions 2, 3, 4 & 5 within the 06-34-03 sequence of PCT/EP2012/069898 (SEQ ID NO 58)) | 1 | –
SEQ ID NO: 93 (CSYPFRCTHQDLC; Synthetic sequence Kallikrein binder identified from selections using a randomised WPAR motif at positions 2, 3, 4 & 5 within the 06-34-03 sequence of PCT/EP2012/069898 (SEQ ID NO 58)) | 1 | –
SEQ ID NO: 94 (CSFPYKCTHQDLC; Synthetic sequence Kallikrein binder identified from selections using a randomised WPAR motif at positions 2, 3, 4 & 5 within the 06-34-03 sequence of PCT/EP2012/069898 (SEQ ID NO 58)) | 1 | –
SEQ ID NO: 77 (CSFPYRCTHQDLC; Synthetic sequence Kallikrein binder identified from selections using a randomised WPAR motif at positions 2, 3, 4 & 5 within the 06-34-03 sequence of PCT/EP2012/069898 (SEQ ID NO 58)) | 12 | –
WPYR: phage clone: WPYR at positions 2-5 within the 06-34-03 sequence, TBMB-cyclised (also: TBMB-cyclised within the 06-34-03 context, the cysteines lie outside this motif) | – | Relative abundance of motif in selection output [1]: 3%; Relative abundance of motif in selection output [2]: 0%; Relative abundance of motif in selection output [3]: 4%; Relative abundance of motif in selection output [4]: 0%; Relative abundance of motif in selection output (stringency High): 3%; Relative abundance of motif in selection output (stringency LOW): 0%
SEQ ID NO: 83 (CRFPFKCTHQDLC; Synthetic sequence Kallikrein binder identified from selections using a randomised WPAR motif at positions 2, 3, 4 & 5 within the 06-34-03 sequence of PCT/EP2012/069898 (SEQ ID NO 58)) | 1 | –
SEQ ID NO: 106 (CSFPFWCTHQDLC; Synthetic sequence Kallikrein binder identified from selections using a randomised WPAR motif at positions 2, 3, 4 & 5 within the 06-34-03 sequence of PCT/EP2012/069898 (SEQ ID NO 58)) | 1 | –
FPYR: phage clone: FPYR at positions 2-5 within the 06-34-03 sequence, TBMB-cyclised (also: TBMB-cyclised within the 06-34-03 context, the cysteines lie outside this motif) | – | Relative abundance of motif in selection output [1]: 3%; Relative abundance of motif in selection output [2]: 3%; Relative abundance of motif in selection output [3]: 7%; Relative abundance of motif in selection output [4]: 16%; Relative abundance of motif in selection output (stringency High): 7%; Relative abundance of motif in selection output (stringency LOW): 4%
SEQ ID NO: 81 (CSHPFRCTHQDLC; Synthetic sequence Kallikrein binder identified from selections using a randomised WPAR motif at positions 2, 3, 4 & 5 within the 06-34-03 sequence of PCT/EP2012/069898 (SEQ ID NO 58)) | 1 | –
SEQ ID NO: 76 (CSWLARCTHQDLC; Synthetic sequence Kallikrein binder identified from selections using a randomised WPAR motif at positions 2, 3, 4 & 5 within the 06-34-03 sequence of PCT/EP2012/069898 (SEQ ID NO 58)) | 8 | –
SEQ ID NO: 82 (CSWPYRCTHQDLC; Synthetic sequence Kallikrein binder identified from selections using a randomised WPAR motif at positions 2, 3, 4 & 5 within the 06-34-03 sequence of PCT/EP2012/069898 (SEQ ID NO 58)) | 3 | –
